The supplement of paper PMC9170038

What follows are sequences tested on K4 kissing-loop RNA reporter (assay: apparent KD of K4 kissing-loop reporter; higher = weaker reporter binding). Settings: Eterna round: R107; input ligand: theophylline 20 uM.
Protocol: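 RNA-MaP round R107: designed RNA switches with theophylline, tryptophan, arginine or FMN aptamers are transcribed on-chip within common flanks. They are titrated with a labelled K4 kissing-loop RNA reporter in RNA-MaP buffer (100 mM Tris pH 7.5, 80 mM KCl, 4 mM MgCl2), without ligand or with the indicated ligand. Median apparent KD per design.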
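Note: bound reporter read as fluorescence of individual clusters on recovered sequencing chips by microscopy, with normalized cluster intensities fitted with a binding model.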

Row | Sequence | apparent KD of K4 kissing-loop reporter
1 | UCACGUGCCAGUGAUGUUGGCGUACGUGAUACCAGACGAAUAAAAGUCCCUUGGCAGCACAAAUAUGCCAAGUUAGAUGUAUGAU [Exclusion Theophylline A GF 2] | 116 nM
2 | GCCAGAGCGCGAAGGAGCGCCGUGACAGGUUACUGCCUUGGGCAGUGAUGUUGCUCAAUCUGGCAGGUAGGUCGCGUGCUCUGGC | 202 nM
3 | CACCAUGAAUUCUCUAGGAGUGAUGUUUUUCGAGGACCGGUACGGCCGCCACUCGGACGAGGAACGUGGGAGCGGCGAAAAGACU [xzzmullin] | 83.9 nM
4 | GUGCGGCUAGUGAUGUUGGUUGCGUGGGAAGGAGCGCAGAAACAUGCAGGUAGGUCGCCCACACCUCUGAAAGAAGGUUAAUUCA [Biistian] | 231 nM
5 | CGCCACGACUGAAGGAGCGCGCCAGUGAUGUUGGACGGCUUUGUCAAGGAAACUGCACCGGUGCAGGUAGGUCGCAGUUCGUGGU [Quisbiri] | 588 nM
6 | GCGAAGAAGGUUGAUACCAGUCUUGCGUGUCAAGCGCCAGUGAUGUUGGGCCUGUAGAUCGACCCUUGGCAGCAACCUCGAAAUG [theeternabot_sameState_KL_Theo_B_28] | 748 nM
7 | UAAUUUAUUUCUUUUAUAUAAUAAUCAGAUACCAGUGAUUAAUGUCACCCUUGGCAGCUGUAUAGAGUGAUGUUCUAAUGCUUAA [JR_SSTheophyA_Sub022] | 233 nM
8 | GUUACGCAUGGAAGGAGCGCAGGCUCAACAAGUAGCUCAGUGAUGUUGAGCAUAUUAAUUCUGCAGGUAGGUCGCCAUGUGUAAC [Ex Arginine B K4 26] | 802 nM

Same assay, conditions: Eterna round: R107; input ligand: tryptophan 2.4 mM

Row | Sequence | apparent KD of K4 kissing-loop reporter
9 | AGCAGGAGUGAUGUUCCUGUGGCAUAAGUUCGAGGACCGGUACGGCCGCCACUCGUAACAUUAAUCCGUCCUUGAUCAGAUAAGA [theeternabot_sameState_KL_Trp_A_12] | 101 nM
10 | AGGCACGAGCAAGGAUAUCGAGUAGAGUGAUGUUCUGCCUGGGUUGGCUCGGAAGAGCCUUCUCAGCGAGAAGGUGCUCGUGCCU [#2 Same State - FMN A Attempt #19 (HarryS)] | 888 nM
11 | GCAGUGAUGUUGCUGGUGUGCAGUGGUAGUCGAGGACCGGUACGGCCGCCACUCGGUGAGAACCUGCUAAUACAUCGAUAAGUGA [XVIII] | 558 nM
12 | AAGAGUUGACGAAAAGUCAACUCACGAGAAGGAGCGCACGAAAGUGCAGGUAGGUCGCUCAGUCCAGUGAUGUUGGAACAUAAAA [#OpenEnded 7] | 73.3 nM
13 | UGAUACCAGACUGAUACCAGCUAGUGAUGUUAGCUGAAACAGGAACAGGCAAAGCCUGCUAGCCCUUGGCAGCAGUCUGGUAUCU [TheoBX 11 #SwitchBubble #StaticStem] | 85.3 nM
14 | AGUUCUUGCCGAAGGAGCGAGGCAGAGUGAUGUUCUGCACGAGGUCGAAAGACCUCGCUGCCUCAGGUAGGUCGCGGCAUGAACA [Omei KL Arginine B Exc A v2] | 1300 nM
15 | GCUCGGGAGUGAUGUUCCAAGUGGUGUUAACGAGGACCGGUACGGCCGCCACUCGAUACGGCCGGACCGUAGGAUAAACUGGAGC [Same State - Tryptophan A (Freestyle 12)] | 144 nM
16 | UUAUACUCAUGUAAAGAACUAGUAACCGAAGGAGCGACAUAAAAGUCAGGUAGGUCGCGGAUUUCUCAGUGAUGUUGAGAGCAUU [JR_SSArginiA_Sub012] | 93.9 nM
17 | AUCGUUGCCAUUAGGACAUACGGUCCUGAACGAGGACCGGUACGGCCGCCACUCGAGCACACGAGUGAUGUUCGUGGGCAACGAU [Tryp A SS t1] | 358 nM
18 | AUACGUUUAAGUGAUACCAGACAUGUGAGUGAUGUUUACAUAUAUAUUUAAUAUUUAGCUGUCCCUUGGCAGCACAGUUUAUUUA [JR_ExcTheophyB_Sub001] | 308 nM
19 | UUUAUGAUGUCGGCCGCCACUGGAUUAAUAUGUGUGUAAUCUAGUUCUGAGUGAUGUUUAGAGUCCAGGACCGGGACAUUAGUUA [#12 K4 Tryptophan B Exclusion] | 700 nM
20 | GGAUAUGUAACAGAUACCAGCCGACGACAGUCACUGUGUCAUGUAGUGAUGUUACAAUCUGGCCCUUGGCAGCUGUCUCUGGUUU [theeternabot_exclusion_KL_Theo_B_27] | 250 nM
21 | UGGACCUGACUCGAUAAGAGUCAAUGAGAUACCAGUGACGAAAGUCACCCUUGGCAGCUCAACUGCCAGUGAUGUUGGUGGUCCU [#SwitchBubble 2 #StaticStem] | 528 nM
22 | GAGCCAACCGUCGAUACCAGCCGCACGUCAUUCACUCAAUGCUGAGGAGCCAGUGAUGUUGGCCCUUGGCAGCGAAGCAACGAUC [theeternabot_exclusion_KL_Theo_B_43] | 93.2 nM
23 | AUGUAUGAAUUAGGAUAUCGUGAUCCAUGCAUAUAUAUGAUAAAUGGAUAUGUCGUAGUGAUGUUACGAGAAGGAGUGUGGAGUA [KL-XFMN-B1] | 45 nM
24 | UGACUACAAAAGGAAUAAUCCUAGUGAUGUUAGGAUAUGCUGAUAAGCAGAAGGAACGGAGAUCGAAAGAUCUCAUAUGUAGUCU [whbob_Ex_FMNA__2th192] | 87.4 nM

Row | Sequence | apparent KD of K4 kissing-loop reporter
25 | GGGAUGUAGGGAAGGAGCGCUUUGCGAAUAUUAAUGAGUGAUGUUCGUAGAUAUUUGUAAUGGCAGGUAGGUCGCCCUAUAUCCC [Skye_SS_AB] | 157 nM
26 | GCCGUAGAUUGAAGGAGCGUGGACCUAUCGCUUGAACAGUGAUGUUGUUUAUCUAGGAAGCCGCAGGUAGGUCGCAAUCUACGGC | 382 nM
27 | AUAUCUGUUCGAAAGAACGGAUCUUCGGAAGGAGCGCGUGAAAACGCAGGUAGGUCGCCGAAGUUAUUAGGUAGUGAUGUUACCU [Arginine A K4 7] | 109 nM
28 | UGACUUGCCUGAGGAUAUCUAGGAUAUCCAUAAAAGGAAAUAAUAGUUCAGUGAUGUUGGAGAAGGAGAGAAGGCAGGUAAGUCU [KL-XFMN-B18 #DoubleAptamer #SwitchBubble] | 448 nM
29 | UUGACCAAAUUCCGGUGAUCAUCGCCGCCGCGAGGACCGGUACGGCCGCCACUCGUCCCUAUGCUCGGAGUAGUGAUGUUAUUCA [theeternabot_sameState_KL_Trp_A_43] | 574 nM
30 | CAACAUCACAACUUCUUCGUCCUAGAAGACUAGGAUAUCAGGAAACUGAGAAGGAGUCUCUGCAGUGAUGUUGCAGCUAGGACGA [[K]'-[F2]'-[F1]'-[F1]-[F2]-[K1]-[K2]-[F]''_Design2b] | 219 nM
31 | UGUAUGUGAUUUGAUACCAGACCAGCUGGUGGUAUCUGAGUGAUGUUCAGGUAGGUUUGGGUCCCUUGGCAGCAAAUCGCAUACU [KL-SSTheoB26] | 147 nM
32 | CACCAUGAAUUCUCUAGGAGUGAUGUUUUUCGAGGACCGGUACGGCCGCCACUCGGACGAGGACCGUGGGAGCGGCGAAGCGACU [wwegmullin] | 101 nM
33 | UCACGUGCCAGUGAUGUUGGCGUACGUGAUACCAGACGAAUAAAAGUCCCUUGGCAGCACAAAUAUGCCAAGUUAGAUGUAUGAU [Exclusion Theophylline A GF 2] | 116 nM
34 | GCCAGAGCGCGAAGGAGCGCCGUGACAGGUUACUGCCUUGGGCAGUGAUGUUGCUCAAUCUGGCAGGUAGGUCGCGUGCUCUGGC | 168 nM
35 | CACCAUGAAUUCUCUAGGAGUGAUGUUUUUCGAGGACCGGUACGGCCGCCACUCGGACGAGGAACGUGGGAGCGGCGAAAAGACU [xzzmullin] | 121 nM
36 | GUGCGGCUAGUGAUGUUGGUUGCGUGGGAAGGAGCGCAGAAACAUGCAGGUAGGUCGCCCACACCUCUGAAAGAAGGUUAAUUCA [Biistian] | 207 nM
37 | CGCCACGACUGAAGGAGCGCGCCAGUGAUGUUGGACGGCUUUGUCAAGGAAACUGCACCGGUGCAGGUAGGUCGCAGUUCGUGGU [Quisbiri] | 362 nM
38 | GCGAAGAAGGUUGAUACCAGUCUUGCGUGUCAAGCGCCAGUGAUGUUGGGCCUGUAGAUCGACCCUUGGCAGCAACCUCGAAAUG [theeternabot_sameState_KL_Theo_B_28] | 655 nM
39 | UAAUUUAUUUCUUUUAUAUAAUAAUCAGAUACCAGUGAUUAAUGUCACCCUUGGCAGCUGUAUAGAGUGAUGUUCUAAUGCUUAA [JR_SSTheophyA_Sub022] | 147 nM
40 | GUUACGCAUGGAAGGAGCGCAGGCUCAACAAGUAGCUCAGUGAUGUUGAGCAUAUUAAUUCUGCAGGUAGGUCGCCAUGUGUAAC [Ex Arginine B K4 26] | 646 nM
